Laboratory results reported in patent US20040001822A1, “Y1-isolated molecules comprising epitopes containing sulfated moieties, antibodies to such epitopes, and uses thereof” (priority 2000, published 2004).
Starred links: 1 amine or outer side, 2 acyl side, 3 side chain; linkers in the order of their positions; H or OH if unused. No end group written: not given here. SO3H = sulfated tyrosine (Y*), O=S(=O)(O)[*:2]

Legend:
Details in all cases: remark: other sources report otherwise
Y1 scFv [1] = assay: competition ELISA, peptide 2.5 µM preincubated with Y1 (0.25 µg/well), glycocalicin-coated plate
Y1 scFv [2] = assay: competition ELISA, peptide 200 µM preincubated with Y1 (0.25 µg/well), glycocalicin-coated plate
Y1 scFv [3] = assay: competition ELISA, peptide 25 µM preincubated with Y1 (0.25 µg/well), glycocalicin-coated plate
Y1 scFv [4] = assay: competition FACS, peptide 200 µM preincubated with Y1-scFv, washed platelets
Y1 scFv [5] = assay: competition FACS, peptide 2.5 µM preincubated with Y1-scFv, washed platelets
Y1 scFv [6] = assay: competition ELISA, peptide 0.5 µM preincubated with Y1 (0.25 µg/well), glycocalicin-coated plate

Y1 scFv, sequence (chain, as listed by the source): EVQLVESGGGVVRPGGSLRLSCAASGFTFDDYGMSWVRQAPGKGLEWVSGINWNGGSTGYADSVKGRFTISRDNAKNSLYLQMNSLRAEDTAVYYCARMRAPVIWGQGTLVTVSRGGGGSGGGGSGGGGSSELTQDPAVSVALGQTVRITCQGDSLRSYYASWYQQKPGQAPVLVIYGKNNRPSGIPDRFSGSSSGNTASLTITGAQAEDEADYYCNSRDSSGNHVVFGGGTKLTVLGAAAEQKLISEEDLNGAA

Binder: GDEGDTDLY(SO3H)DY(SO3H)Y(SO3H)PEEDTE [P-1-S peptide (residues 268-285 of GPIbα, sulfated)]
- Residual Binding of Y1 (% of baseline) (Y1 scFv [1]): 62%
- Residual Binding of Y1 (% of baseline) (Y1 scFv [2]): 0%
- Residual Binding of Y1 (% of baseline) (Y1 scFv [3]): 25%
- Residual Binding of Y1 (% of baseline) (Geo Mean) (Y1 scFv [4]): 5%
- Residual Binding of Y1 (% of baseline) (Geo Mean) (Y1 scFv [5]): 41%
- Residual Binding of Y1 (% of baseline) (Y1 scFv [6]): 89%
